The experiment addresses LptB2FG from Shigella flexneri (Shigella flexneri) (UniProt P0A9V4).

“LptC from Shigella flexneri (subunit of sfLptB2FGC) (from UniProt P0ADW2 1-191) (natural protein)” displayed an ATPase activity of purified sfLptB2FGC compared with sfLptB2FG under the same conditions of 50 % less.
